# ± gives the standard deviation of the averaged measurements.
# Columns and labels:
# MCF7 = assay: percentage of EdU-negative (G0-arrested) nuclei per well, 72 h; higher = more G0 arrest; conditions: reference: sequence is the full UniProt precursor, the tested protein was the secreted form or ectodomain
# hTERT-HMEC = assay: as above; conditions: reference: sequence is the full UniProt precursor, the tested protein was the secreted form or ectodomain
# [1] = protein concentration 0.00575 µM
# [2] = protein concentration 0.0575 µM
# [3] = protein concentration 0.0225 µM
# [4] = protein concentration 0.0322857 µM
# [5] = protein concentration 0.322857 µM
# [6] = protein concentration 0.0257143 µM
# [7] = protein concentration 0.257143 µM
# [8] = protein concentration 0.0055 µM
# [9] = protein concentration 0.02025 µM
# [10] = protein concentration 0.2025 µM
# 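Also: secreted proteins added to cultured cells, EdU pulse at the end, nuclei found by Hoechst imaging, EdU status from nuclear versus surrounding ring intensity ratio, PBS as neutral control.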
substance,measurement,setting,value
P0C0L4,percentage of EdU-negative,MCF7; [1],24.22 ± 0.12%
same,percentage of EdU-negative,MCF7; [2],26.1 ± 0.47%
same,percentage of EdU-negative,hTERT-HMEC; [1],4.91 ± 0.16%
same,percentage of EdU-negative,hTERT-HMEC; [2],5.66 ± 0.38%
MNVLLGSVVIFATFVTLCNASCYFIPNEGVPGDSTRKCMDLKGNKHPINSEWQTDNCETCTCYETEISCCTLVSTPVGYDKDNCQRIFKKEDCKYIVVEKKDPKKTCSVSEWII,percentage of EdU-negative,MCF7; [3],25.8 ± 1.8%
same,percentage of EdU-negative,MCF7; protein concentration 0.225 µM,24.5 ± 0.81%
same,percentage of EdU-negative,hTERT-HMEC; [3],5.28 ± 0.77%
same,percentage of EdU-negative,hTERT-HMEC; protein concentration 0.225 µM,5.95 ± 1.1%
MAESAGASSFFPLVVLLLAGSGGSGPRGVQALLCACTSCLQANYTCETDGACMVSIFNLDGMEHHVRTCIPKVELVPAGKPFYCLSSEDLRNTHCCYTDYCNRIDLRVPSGHLKEPEHPSMWGPVELVGIIAGPVFLLFLIIIIVFLVINYHQRVYHNRQRLDMEDPSCEMCLSKDKTLQDLVYDLSTSGSGSGLPLFVQRTVARTIVLQEIIGKGRFGEVWRGRWRGGDVAVKIFSSREERSWFREAEIYQTVMLRHENILGFIAADNKDNGTWTQLWLVSDYHEHGSLFDYLNRYTVTIEGMIKLALSAASGLAHLHMEIVGTQGKPGIAHRDLKSKNILVKKNGMCAIADLGLAVRHDAVTDTIDIAPNQRVGTKRYMAPEVLDETINMKHFDSFKCADIYALGLVYWEIARRCNSGGVHEEYQLPYYDLVPSDPSIEEMRKVVCDQKLRPNIPNWWQSYEALRVMGKMMRECWYANGAARLTALRIKKTLSQLSVQEDVKI,percentage of EdU-negative,MCF7; [3],25.1 ± 0.54%
same,percentage of EdU-negative,MCF7; protein concentration 0.225 µM,25.3 ± 3.2%
same,percentage of EdU-negative,hTERT-HMEC; [3],5.48 ± 0.32%
same,percentage of EdU-negative,hTERT-HMEC; protein concentration 0.225 µM,6.41 ± 1.6%
MASYLYGVLFAVGLCAPIYCVSPANAPSAYPRPSSTKSTPASQVYSLNTDFAFRLYRRLVLETPSQNIFFSPVSVSTSLAMLSLGAHSVTKTQILQGLGFNLTHTPESAIHQGFQHLVHSLTVPSKDLTLKMGSALFVKKELQLQANFLGNVKRLYEAEVFSTDFSNPSIAQARINSHVKKKTQGKVVDIIQGLDLLTAMVLVNHIFFKAKWEKPFHPEYTRKNFPFLVGEQVTVHVPMMHQKEQFAFGVDTELNCFVLQMDYKGDAVAFFVLPSKGKMRQLEQALSARTLRKWSHSLQKRWIEVFIPRFSISASYNLETILPKMGIQNVFDKNADFSGIAKRDSLQVSKATHKAVLDVSEEGTEATAATTTKFIVRSKDGPSYFTVSFNRTFLMMITNKATDGILFLGKVENPTKS [Q86WD7],percentage of EdU-negative,MCF7; [4],27.1 ± 1.6%
same,percentage of EdU-negative,MCF7; [5],25.7 ± 0.86%
same,percentage of EdU-negative,hTERT-HMEC; [4],5.19 ± 0.14%
same,percentage of EdU-negative,hTERT-HMEC; [5],6.1 ± 0.46%
MAAARLCLSLLLLSTCVALLLQPLLGAQGAPLEPVYPGDNATPEQMAQYAADLRRYINMLTRPRYGKRHKEDTLAFSEWGSPHAAVPRELSPLDL,percentage of EdU-negative,MCF7; [6],20.5 ± 1.5%
same,percentage of EdU-negative,MCF7; [7],23.4 ± 3.6%
same,percentage of EdU-negative,hTERT-HMEC; [6],5.37 ± 1.1%
same,percentage of EdU-negative,hTERT-HMEC; [7],5.93 ± 0.18%
MWGLKVLLLPVVSFALYPEEILDTHWELWKKTHRKQYNNKVDEISRRLIWEKNLKYISIHNLEASLGVHTYELAMNHLGDMTSEEVVQKMTGLKVPLSHSRSNDTLYIPEWEGRAPDSVDYRKKGYVTPVKNQGQCGSCWAFSSVGALEGQLKKKTGKLLNLSPQNLVDCVSENDGCGGGYMTNAFQYVQKNRGIDSEDAYPYVGQEESCMYNPTGKAAKCRGYREIPEGNEKALKRAVARVGPVSVAIDASLTSFQFYSKGVYYDESCNSDNLNHAVLAVGYGIQKGNKHWIIKNSWGENWGNKGYILMARNKNNACGIANLASFPKM,percentage of EdU-negative,MCF7; [8],25.3 ± 2.9%
same,percentage of EdU-negative,MCF7; protein concentration 0.055 µM,27.4 ± 1.2%
same,percentage of EdU-negative,hTERT-HMEC; [8],4.75 ± 0.94%
same,percentage of EdU-negative,hTERT-HMEC; protein concentration 0.055 µM,4.78 ± 0.37%
MRPLLLLALLGWLLLAEAKGDAKPEDNLLVLTVATKETEGFRRFKRSAQFFNYKIQALGLGEDWNVEKGTSAGGGQKVRLLKKALEKHADKEDLVILFADSYDVLFASGPRELLKKFRQARSQVVFSAEELIYPDRRLETKYPVVSDGKRFLGSGGFIGYAPNLSKLVAEWEGQDSDSDQLFYTKIFLDPEKREQINITLDHRCRIFQNLDGALDEVVLKFEMGHVRARNLAYDTLPVLIHGNGPTKLQLNYLGNYIPRFWTFETGCTVCDEGLRSLKGIGDEALPTVLVGVFIEQPTPFVSLFFQRLLRLHYPQKHMRLFIHNHEQHHKAQVEEFLAQHGSEYQSVKLVGPEVRMANADARNMGADLCRQDRSCTYYFSVDADVALTEPNSLRLLIQQNKNVIAPLMTRHGRLWSNFWGALSADGYYARSEDYVDIVQGRRVGVWNVPYISNIYLIKGSALRGELQSSDLFHHSKLDPDMAFCANIRQQDVFMFLTNRHTLGHLLSLDSYRTTHLHNDLWEVFSNPEDWKEKYIHQNYTKALAGKLVETPCPDVYWFPIFTEVACDELVEEMEHFGQWSLGNNKDNRIQGGYENVPTIDIHMNQIGFEREWHKFLLEYIAPMTEKLYPGYYTRAQFDLAFVVRYKPDEQPSLMPHHDASTFTINIALNRVGVDYEGGGCRFLRYNCSIRAPRKGWTLMHPGRLTHYHEGLPTTRGTRYIAVSFVDP,percentage of EdU-negative,MCF7; [9],27 ± 1.9%
same,percentage of EdU-negative,MCF7; [10],27.54 ± 0.046%
same,percentage of EdU-negative,hTERT-HMEC; [9],4.5 ± 0.15%
same,percentage of EdU-negative,hTERT-HMEC; [10],7.829 ± 0.054%
